Data from paper PMC7162537.

Target: BRCA1 (UniProt P38398)
Test: anti-HA co-IP from nuclear extract, blot
Settings: reference: wild type FANCJ; sites S990

For FANCJ (from UniProt Q9BX63) S990A, the “binding against the reference” value was “lost”.
